Measurements from the RNAGym collection of RNA variant scans (doi:10.7554/elife.80360).

B1: Hairpin Ribozyme (parent)
chain: GUCCUCUUUCACGUGCGCGUGAAAGAGAGAAGUGAACCAGAGAAACACACGUUGUGGUAUAUUACCUGGUA

Variants of: B1
Assay: self-cleavage, relative activity (ratio to wild type); higher = more cleavage; co-transcriptional

| Variant | self-cleavage |
| --- | --- |
| GUCCUUUUUCACGUGCGCGUGAAAGAGAGAAGUGAACCAGAAAAACACACGUUGUGGUAUAUUACCUGGUA | 0.275 |
| GUCCUUUUUCACGUUCGCGUGAAAGAGAGAAGUGAACCAGAGAAACACACGUUGUGGUAUAUUACCUGGUA | 0.814 |
| GUCCUUUUUCACGUGCGCGUGAAAGAGUGAAGUGAACCAGAGAAACACACGUUGUGGUAUAUUACCUGGUA | 0.495 |
| GUCCUUUUUCACGUGCGCGUGAAAGAGAGAAGUGAACCAGCGAAACACACGUUGUGGUAUAUUACCUGGUA | 1.16 |
| GUCCUUUUUCACGUGCGCGUGAAAGAGAGAAGUGAACAAGAGAAACACACGUUGUGGUAUAUUACCUGGUA | 0.0889 |
| GUCCUUUUUCACGUGCGCGUGAAAGAGAGAAGUGAACCAGAGCAACACACGUUGUGGUAUAUUACCUGGUA | 0.0901 |
| GUCCUUUUUCACGUGCGCGUGAAAGAGAGAAGUGAACCAGAGGAACACACGUUGUGGUAUAUUACCUGGUA | 0.151 |
| GUCCUUUUUCACGUGCGCGUGAAAGAGAGAAGUGAACCCGAGAAACACACGUUGUGGUAUAUUACCUGGUA | 0.504 |
| GUCCUUUUUCAUGUGCGCGUGAAAGAGAGAAGUGAACCAGAGAAACACACGUUGUGGUAUAUUACCUGGUA | 0.696 |
| GUCCUUUUUCACGUGCGCGUGAAAGAGAGAAGUGAACCAGAGAAACACACGUUGUGGUAUAUUAUCUGGUA | 0.323 |
| GUCCUUUUUCACGUGCGCGUGAAAGAGAGACGUGAACCAGAGAAACACACGUUGUGGUAUAUUACCUGGUA | 0.0728 |
| GUCCUUUUUCACGUGCGCGUGAAGGAGAGAAGUGAACCAGAGAAACACACGUUGUGGUAUAUUACCUGGUA | 0.353 |
| GUCCUUUUUCACGUGCGCGUUAAAGAGAGAAGUGAACCAGAGAAACACACGUUGUGGUAUAUUACCUGGUA | 0.468 |
| GUCCUUUUUCACGUGCGCGUGAAAGAGAGAAGUGAACCAGAGAAACACACGUUGUGGUAUAUUACAUGGUA | 0.11 |
| GUCCUUUUUCACGUGCGCGUGAAAGAGAGAAGUGAACCAGAGAAACACACGUUGUGGUAUAUUACGUGGUA | 0.194 |
| GUCCUUUUUCACGUGCGCGUGAAAGAGAGAAGUGAACCAGAGAAACAUACGUUGUGGUAUAUUACCUGGUA | 0.227 |
| GUCCUUUUUCACGUGCGCGUGAAAGAGAGAAGUGAACCAGAGAAACAAACGUUGUGGUAUAUUACCUGGUA | 0.209 |
| GUCCUUUUUCACGUGCGCGUGAAAGAGAGAAGUGAACCAGAGAAACACACGUUGUGGUAUAUUACCUGGUC | 1.05 |
| GUCCUUUUUCACGUGCGCGUGAAAGAGAGAAGUGAAACAGAGAAACACACGUUGUGGUAUAUUACCUGGUA | 0.286 |

| Variant | self-cleavage |
| --- | --- |
| GUCCUUUUUCACGUGCGCGUGAAAGAGAGAAGUGAACCAUAGAAACACACGUUGUGGUAUAUUACCUGGUA | 0.166 |
| GUCCUUUUUCACGUGCGCGUGAAAGAGAGAAGUGAACCAGAGAAACACCCGUUGUGGUAUAUUACCUGGUA | 0.0449 |
| GUCCUUUUUCACGUGCGCGUGAAAGAGAGAAGUGAACCAGAGAAACACUCGUUGUGGUAUAUUACCUGGUA | 0.159 |
| GUCCUUUUUCACGUGCGCGUGAAACAGAGAAGUGAACCAGAGAAACACACGUUGUGGUAUAUUACCUGGUA | 0.773 |
| GUCCUUUUUCACGUGCGCGUGAAAGAGAAAAGUGAACCAGAGAAACACACGUUGUGGUAUAUUACCUGGUA | 0.158 |
| GUCCUUUUUCACGUGCGCGUGAAAGUGAGAAGUGAACCAGAGAAACACACGUUGUGGUAUAUUACCUGGUA | 0.414 |
| GUCCUUUUUCACGUGCGCGUGAAAGAGAGAAGUGAACCAGAGAAACACACAUUGUGGUAUAUUACCUGGUA | 0.816 |
| GUCCUGUUUCACGUGCGCGUGAAAGAGAGAAGUGAACCAGAGAAACACACGUUGUGGUAUAUGACCUGGUA | 0.19 |
| GUCCUUUUUCACGUGCGCGUGAAAGAGAGAAGUGAACCAGAGAAACACACGUUGUGGUAUCUUACCUGGUA | 0.296 |
| GUCCUUUUUCACGUGCGCGUGAAAGAGAGAAGUGCACCAGAGAAACACACGUUGUGGUAUAUUACCUGGUA | 0.896 |
| GUCCUUUUUCACGUGCGCGUGAAAGAGAGAAGUGGACCAGAGAAACACACGUUGUGGUAUAUUACCUGGUA | 0.683 |
| GUCCUUUUUCACGUGCACGUGAAAGAGAGAAGUGAACCAGAGAAACACACGUUGUGGUAUAUUACCUGGUA | 0.917 |
| GUCCUUUUUCACGUGCCCGUGAAAGAGAGAAGUGAACCAGAGAAACACACGUUGUGGUAUAUUACCUGGUA | 0.434 |
| GUCCUUUUUCACGUGCGCGUGACAGAGAGAAGUGAACCAGAGAAACACACGUUGUGGUAUAUUACCUGGUA | 0.608 |
| GUCCUUUUUCACGUGCGCGUGAUAGAGAGAAGUGAACCAGAGAAACACACGUUGUGGUAUAUUACCUGGUA | 0.615 |
| GUCCUUUUUCACGUGUGCGUGAAAGAGAGAAGUGAACCAGAGAAACACACGUUGUGGUAUAUUACCUGGUA | 0.971 |
| GUCCUUUUUCACGUGGGCGUGAAAGAGAGAAGUGAACCAGAGAAACACACGUUGUGGUAUAUUACCUGGUA | 0.65 |
| GUCCUGUUUCACGUGCGCGUGAAAGAGAGAAGUGAACCAGAGAAACACACGUUGUGGUAUAUUACCUGGCA | 0.497 |
| GUCCUUUUUCACGUGCGCGUGAAAGAGAGAAGUUAACCAGAGAAACACACGUUGUGGUAUAUUACCUGGUA | 1.21 |
